Assay results taken from paper PMC10889000.

Biological target: Insulin-like growth factor 2 mRNA binding protein 2, full-length, Q9Y6M1
Experiment: mass photometry
Conditions: remark: other sources report otherwise

B1: Insulin-like growth factor 2 mRNA binding protein 2, full-length, Q9Y6M1 1-599 (natural protein)
chain: MMNKLYIGNLSPAVTADDLRQLFGDRKLPLAGQVLLKSGYAFVDYPDQNWAIRAIETLSGKVELHGKIMEVDYSVSKKLRSRKIQIRNIPPHLQWEVLDGLLAQYGTVENVEQVNTDTETAVVNVTYATREEAKIAMEKLSGHQFENYSFKISYIPDEEVSSPSPPQRAQRGDHSSREQGHAPGGTSQARQIDFPLRILVPTQFVGAIIGKEGLTIKNITKQTQSRVDIHRKENSGAAEKPVTIHATPEGTSEACRMILEIMQKEADETKLAEEIPLKILAHNGLVGRLIGKEGRNLKKIEHETGTKITISSLQDLSIYNPERTITVKGTVEACASAEIEIMKKLREAFENDMLAVNQQANLIPGLNLSALGIFSTGLSVLSPPAGPRGAPPAAPYHPFTTHSGYFSSLYPHHQFGPFPHHHSYPEQEIVNLFIPTQAVGAIIGKKGAHIKQLARFAGASIKIAPAEGPDVSERMVIITGPPEAQFKAQGRIFGKLKEENFFNPKEEVKLEAHIRVPSSTAGRVIGKGGKTVNELQNLTSAEVIVPRDQTPDENEEVIVRIIGHFFASQTAQRKIREIVQQVKQQEQKYPQGVASQRSK
  percent of the protein in the ˜160kDa species: 42%
